# Patent publication US20060018906A1
# Biological target: human tumor necrosis factor-α (TNFα) (human) (UniProt P01375)
# Experiment: cell-based or functional assay
# human tumor necrosis factor-α (TNFα) (human), sequence (P01375 77-233): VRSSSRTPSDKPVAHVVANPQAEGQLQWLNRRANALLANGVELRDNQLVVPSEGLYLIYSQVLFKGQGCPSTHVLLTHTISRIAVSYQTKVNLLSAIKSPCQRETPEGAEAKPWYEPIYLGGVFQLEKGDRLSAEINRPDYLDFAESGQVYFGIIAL
binder,measurement,value
"chimeric mouse/human IgG1 anti-platelet mAb (7E3) (antibody, INN chains, looked up, V domains shown, IgG1) VH: EVQLQQSGTVLARPGASVKMSCEASGYTFTNYWMHWVKQRPGQGLEWIGAIYPGNSDTSYIQKFKGKAKLTAVTSTTSVYMELSSLTNEDSAVYYCTLYDGYYVFAYWGQGTLVTVSA VL: EIVLTQSPVTLSVTPGDSVSLSCRASRDISNNLHWFQQTSHESPRLLIKYASQSMSGIPSRFSGSGSGTDFTLSINSVETEDFGMYFCQQTNSWPYTFGGGTKLEIK","IL-6 concentration in FS-4 fibroblast supernatant; rhTNF 0.3 ng/ml, antibody 4 µg/ml",1.6 ng/mL
same,"IL-6 concentration in FS-4 fibroblast supernatant; rhTNF 1.5 ng/ml, antibody 4 µg/ml",1.96 ng/mL
same,"IL-6 concentration in FS-4 fibroblast supernatant; rhTNF 7.5 ng/ml, antibody 4 µg/ml",2.16 ng/mL
